Experiment [1] concerns the target T1, O32-15B.
T1 construct: Homotrimeric component of the O32-15 octahedral nanocage (8 trimers per cage); also called C3 trimer; trimeric component
T1 chain: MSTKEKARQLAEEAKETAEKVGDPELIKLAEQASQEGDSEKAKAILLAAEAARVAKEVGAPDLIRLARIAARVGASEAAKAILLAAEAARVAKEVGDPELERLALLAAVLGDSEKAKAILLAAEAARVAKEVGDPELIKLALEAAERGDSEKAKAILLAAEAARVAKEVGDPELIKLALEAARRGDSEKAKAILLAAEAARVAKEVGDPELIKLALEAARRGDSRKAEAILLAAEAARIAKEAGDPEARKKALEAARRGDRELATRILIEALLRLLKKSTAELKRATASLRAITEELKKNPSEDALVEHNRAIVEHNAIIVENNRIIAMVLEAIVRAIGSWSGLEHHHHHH
Kind of experiment: negative-stain EM of two-component octahedral nanocage. How it is done:
Transmission negative-stain electron microscopy (nsEM) and image processing: SEC purified cage fractions were diluted to about 0.5 μM (monomeric component concentration) for negative-stain EM characterization. Briefly, on a glow-discharged formvar/carbon supported 400-mesh copper grid (Ted Pella, Inc.), 6 μL of protein sample were drop-casted for 2 mins. The grid was blotted and stained with 3 μL of 2% uranyl formate, blotted again, and stained with 3 μL of uranyl formate for 20 s before final blotting. Micrographs of stained samples were taken on a 120 kV Talos™ L120C transmission electron microscope. All nsEM datasets were collected using the EPU software and processed by CryoSparc™ (Punjani et al. 2017) with contrast transfer function (CTF) correction. All the particle picks were 2D classified for 20 iterations into 50 classes. Particles from selected classes were used for building the ab-initio initial model. The initial model was homogeneously refined using C₁ and the corresponding O symmetry.

Experiment [2] is described as follows: ZnPPaM binding titration monitored by UV/vis absorbance. The following applies: absorption titration. How it is done: FIG. 9. SP2-ZnPPaM binding titration monitored by UV/vis absorbance. (a) UV/vis titration of ZnPPaM into a solution of 20 μM SP2 dimer ([…] of SP2 monomer) in 150 mM NaCl, and 10 mM Tris at pH 8. Samples were prepared separately with 0.25 to 4 equivalents (eq.) of ZnPPaM per SP2 protein dimer (2.0 eq. ZnPPaM would be a stoichiometric amount). The y-axis is the molar extinction coefficient, &, or OD divided by ZnPPaM concentration. ZnPPaM was added to protein samples from a DMSO stock solution. Samples were incubated overnight for 20 hours at 4° C. before measurement at room temperature. (b) The same data as in panel (a) zoomed in on the Qy region. Arrows indicate the direction & changes as a function of increasing ZnPPaM concentration. (c) Fitted spectra and (d) species concentration vs. molar ratio of ligand to protein from fitting of the absorbance spectra in panels (a) and (b). During fitting, only the P+L→PL and PL+L→PL2 reactions were considered, and ZnPPaM aggregation was disregarded. (P represents SP2 dimer protein and L represents ZnPPaM ligand). Curve fitting gives dissociation constants (KDs) of 110 nM and 2.0 μM for KD1 and KD2, respectively. Fittings were performed with an algorithm that combines singular value decomposition and least squares regression, as implemented in ReactLab™ Equilibria. (e) Full spectra and (f) the Qy region of a second titration with SP2 dimer protein concentration held at 2.0 μM. At 2.0 μM protein, the intensities of the spectral features at 669 and 692 nm depend upon the molar ratio of protein to ZnPPaM in a manner similar to the 20 μM protein titration shown in panels (a) and (b).
(§1) At longer wavelengths in the UV/visible/near-infrared (UV/vis/NIR), CD spectra can serve as a convenient probe of excitonic interactions between Chls. […] When Chl dimers are arranged in chiral protein environments, however, excitonic interactions can produce delocalized transitions with chiral character, yielding CD signals that are stronger and conservative (i.e., composed of a bisignate doublet that integrates to zero). […] Curve fitting of the CD titrations yields SP2-ZnPPaM dissociation constants (KDs) of 300 nM for KD1 and 2.5 μM for KD2, and SP3-ZnPPaM KDs of 800 nM for KD1 and 1.0 μM for KD2 (data not shown). Due to the lower CD signal of the SP1-ZnPPaM complex, we instead used absorbance and fluorescence to measure the SP1-ZnPPaM interaction. Absorption titrations yielded curve fits with KD1 and KD2 values of 290 nM and 430 nM for SP1, 110 nM and 2.0 μM for SP2, and 350 nM and 940 nM for SP3, respectively (FIG. 9).
Protein-chlorophyll sample preparation: Zn pheophorbide a methyl ester (ZnPPaM) was purchased from Frontier Scientific, Inc. ZnPPaM stock solutions were prepared in dimethyl sulfoxide (DMSO) or methanol to concentrations between 200 μM and 1 mM. ZnPPaM concentrations were determined using mass measurements and by using the known absorptivity of Zn pheophytin a, which has a similar absorbance spectrum and an extinction coefficient €659 nm of 77,300 M^−1 cm^−1 in 80% acetone/20% deionized water (Jones et al. 1976). Ultraviolet/visible (UV/vis) absorbance spectra were collected using a V-750 spectrophotometer with a 1 nm bandwidth and 400 nm/min scanning speed. Protein-ZnPPaM complexes were prepared by slowly adding freshly-prepared ZnPPaM stock solution to protein solution in aqueous buffer at room temperature and incubating samples for several hours. Unbound ZnPPaM was removed by centrifugation to pellet precipitated ZnPPaM, sterile filtration using a 0.22 μm syringe filter, and/or running a PD-10 desalting column purification (Sephadex™ G-25 M resin, Cytiva Life Sciences).

Experiment [3] can be described thus: ZnPPaM fluorescence titration, 1:1 binding model. The following applies: 1:1 binding model of protein monomer to ZnPPaM, approximates average of KD1 and KD2, read-out: KD estimate.
Description: as §1

Experiment [4] can be described thus: ZnPPaM binding titration monitored by CD in the Qy region. The note with it: curve fitting.
Description: as §1
Circular Dichroism (CD) spectroscopy: CD spectra were collected using a J-1500 spectrophotometer. For protein secondary structure assays, spectra were measured on samples of 0.2-0.4 mg/mL protein in 1 mm quartz cuvettes from 260 to 190 nm with a 1 nm bandwidth, 1 nm data interval, data integration time (DIT) of 1 second, and scanning speed of 50 nm/min. Thermal melts were monitored at 222 nm from 2 to 98° C. with a 2 nm bandwidth and 8 second DIT. UV/vis/near-infrared (NIR) CD transitions of protein-bound Chls were examined in the 800-300 nm region in 1 cm quartz cuvettes as averages of 10 scans using a 3 nm bandwidth, 1 nm data interval, DIT of 4 seconds, and scanning speed of 50 nm/min unless otherwise noted. UV/vis/NIR CD spectra shown in FIG. 2 were collected after sterile filtering with 0.22 μm filter and PD-10 desalting column purification (Sephadex™ G-25 M resin, Cytiva Life Sciences). Each spectrum represents the average of two independent sample preparations. Samples contained 8-15 μM protein (monomer concentration) with equimolar ZnPPaM, 150 mM NaCl, and 10 mM Tris buffer at pH 8. ZnPPaM dry powder was dissolved in methanol stock solutions immediately before adding to protein solutions. Samples were allowed to incubate for 8-16 hours at room temperature prior to measuring spectra.

The target of experiment [5] is T2, CpcA-PEB (Synechocystis sp., UniProt Q54715).
T2 construct: made in house; host or cells: E. coli
Kind of experiment: Excitation energy transfer in 2D surface arrays by FLIM / time-resolved single photon counting. The note with it: 485 nm laser. From the text: Native special pairs play a critical role as energy transfer acceptors for antenna proteins. To test whether our designed SP proteins participate in energy transfer with natural light-harvesting proteins, we analyzed excitation energy transfer in 2D surface arrays using Fluorescence Lifetime Imaging Microscopy (FLIM) in combination with nanoimprint lithography (Huang, Vasilev, and Hunter 2020) (FIG. 5). We selected the cyanobacterial antenna protein CpcA with attached phycoerythrobilin (PEB) as the energy transfer donor. CpcA-PEB was purified from E. coli, and gives a strong fluorescence emission maximum at 568 nm and emission extending past 630 nm (Barnett et al. 2017), overlapping with the excitation spectrum of Zn pheophorbide a (ZnPPa) when bound to SP2. […]
To quantify the strength of the interaction between CpcA-PEB and SP2-ZnPPa, we used time-resolved single photon counting. The surface was illuminated with a 485 nm picosecond laser filtered at 620 nm (donor emission), and photons were counted for individual pixels (surface resolution approximately 300 nm) over time, allowing both total fluorescence intensity and lifetime to be analyzed (FIG. 5d). In regions with only CpcA-PEB, fluorescence intensity was above 4000 arbitrary units (a.u.) and the lifetime was over 2 ns (τav=2058 ps). […]

T2 sequence (Q54715 whole entry): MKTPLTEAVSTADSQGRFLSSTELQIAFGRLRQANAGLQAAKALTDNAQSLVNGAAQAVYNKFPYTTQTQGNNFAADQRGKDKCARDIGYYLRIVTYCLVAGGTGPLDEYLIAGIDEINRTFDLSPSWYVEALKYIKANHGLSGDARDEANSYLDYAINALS

B1: O32-15A (designed binder)
chain: MDEEFKFLATEAKMLITAAERLAGTDPRLQEMVALIKKELEQAERTFRNGDKSEAQRQLEFVLTAARAVMNVAAAANAAGTDPLLKAMVDAILWRLKEAIRTFQNGDEEAETQLRFVLRAAIAVAVVAAALVLAGTDPELQEMVEQIKDLLISAFMAGEKALTQLLFVAWAAHAVAMIAAAANLAGPRLQQQVKEILEKLKEAIETFQKGDEEQAFRQLAEVLAEAALVALRAALTNLEHHHHHH
notes: Homodimeric component of the O32-15 octahedral nanocage (12 dimers per cage); also called C2 dimer (based on SP2); chlorophyll dimer component
On to B1, for which the binding result in experiment [1] is listed as “binds”.

B2: SP3: de novo designed chlorophyll special pair protein, C2 homodimer (protein)
chain: SGSSEELARESAEAAWRLAQAGTRLMLAWIRGDLKEIAEALIELARAVQELARVAKEYGNDELAKTAALLAAHVAMLAILVLIRAIKEGDDEVRELAKTAIKLASTAAKIVLDALPTAEEVRQITLLAKLAEEAADKKNEDSALAVGIAAAAVLLALLALEAAQKAGIEEAEKGARLLLKLAMDAARKKNPEEALAVFNAALDVSIALKLLQSAKRAGSEETRKLAEEMLRQALERARK
modifications: homodimer; VARIANT 1..4 optionally absent
notes: de novo designed chlorophyll special pair protein, C2 homodimer
Turning to B2, the Kd in experiment [2] (P+L→PL, 150 mM NaCl, 10 mM Tris pH 8, read-out: dissociation constant KD1) is 350 nM; in experiment [2] (PL+L→PL2, read-out: dissociation constant KD2), 940 nM; in experiment [3] it was 120 nM; in experiment [4] (first ZnPPaM binding (data not shown), read-out: dissociation constant KD1), 800 nM; in experiment [4] (second ZnPPaM binding (data not shown), read-out: dissociation constant KD2), 1000 nM.

B3: SP2-ZnPPa: SP2 protein with bound Zn pheophorbide a (ZnPPa), energy transfer acceptor (protein)
chain: SGSGSSDEEFKFLATEAKMLITAAERLAGTDPELQEMVALIKKELEQAERTFRNGDKSEAQRQLEFVLTAARAVMNVAAAANAAGTDPELIEMVLRILKQLKEAIRTFQNGDQEEAETQLRFVLRAAIAVAVVAAALVLAGTDPELQEMVKQILEELKQAIETFARGDKEKALTQLLFVAWAAHAVAMIAAAANLAGTDPRLQQQVKEILEKLKEAIETFQKGDEEQAFRQLAEVLAEAALVALRAALTN
Regarding B3, in experiment [5] (2D arrays on poly-L-lysine glass, 620 nm filter), the “energy transfer efficiency of CpcA-PEB to SP2-ZnPPa” value came to 59%. The “donor fluorescence lifetime τav” value in experiment [5] (regions with both CpcA-PEB and SP2-ZnPPa, 620 nm donor emission (CpcA-PEB only: 2058 ps)) worked out at 839 ps.

Source of the values: patent publication US20250326867A1, “De novo designed chlorophyll special pair proteins” (University of Washington, priority 2024, published 2025).
